Biological target: T1, recombinant, purified Xenopus β-catenin (Xenopus, UniProt P26233 1-781)
T1 sequence: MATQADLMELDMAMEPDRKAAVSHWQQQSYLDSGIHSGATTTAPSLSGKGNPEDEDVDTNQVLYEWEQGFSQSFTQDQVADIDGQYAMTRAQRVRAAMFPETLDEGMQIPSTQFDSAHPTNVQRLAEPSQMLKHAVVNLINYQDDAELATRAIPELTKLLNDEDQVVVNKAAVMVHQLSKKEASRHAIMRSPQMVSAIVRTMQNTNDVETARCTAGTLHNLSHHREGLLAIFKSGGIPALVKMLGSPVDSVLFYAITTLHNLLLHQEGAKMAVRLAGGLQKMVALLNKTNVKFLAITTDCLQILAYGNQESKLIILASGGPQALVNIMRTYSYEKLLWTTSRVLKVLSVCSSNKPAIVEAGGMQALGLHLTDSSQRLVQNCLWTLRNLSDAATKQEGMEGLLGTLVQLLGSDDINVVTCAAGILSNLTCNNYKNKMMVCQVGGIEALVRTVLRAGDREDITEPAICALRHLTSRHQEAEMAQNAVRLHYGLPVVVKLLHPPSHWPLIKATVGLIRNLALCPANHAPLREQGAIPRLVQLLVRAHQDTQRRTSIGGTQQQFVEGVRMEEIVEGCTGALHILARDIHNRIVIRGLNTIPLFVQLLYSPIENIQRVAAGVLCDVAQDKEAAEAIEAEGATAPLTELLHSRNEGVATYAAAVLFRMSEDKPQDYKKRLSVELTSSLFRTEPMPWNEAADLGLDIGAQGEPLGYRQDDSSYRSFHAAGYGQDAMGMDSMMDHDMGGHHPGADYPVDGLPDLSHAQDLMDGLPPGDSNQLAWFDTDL
Assay: pull-down

B1: Xenopus C-cadherin cytoplasmic domain GST fusion protein (domain or fragment)
chain: not shown
Question: Does B1 bind?
Answer: binds

From PMC2172558 (The Journal of Cell Biology, 2004)
